According to US20240101645A1 (HENRY M JACKSON FOUNDATION FOR THE ADVANCEMENT OF MILITARY …, published 2024):
Numbering of substitutions follows the chain as printed.

T1: MERS-CoV spike antigens (bead panel) (MERS-CoV, UniProt K9N5Q8 18-1296)
T1 sequence: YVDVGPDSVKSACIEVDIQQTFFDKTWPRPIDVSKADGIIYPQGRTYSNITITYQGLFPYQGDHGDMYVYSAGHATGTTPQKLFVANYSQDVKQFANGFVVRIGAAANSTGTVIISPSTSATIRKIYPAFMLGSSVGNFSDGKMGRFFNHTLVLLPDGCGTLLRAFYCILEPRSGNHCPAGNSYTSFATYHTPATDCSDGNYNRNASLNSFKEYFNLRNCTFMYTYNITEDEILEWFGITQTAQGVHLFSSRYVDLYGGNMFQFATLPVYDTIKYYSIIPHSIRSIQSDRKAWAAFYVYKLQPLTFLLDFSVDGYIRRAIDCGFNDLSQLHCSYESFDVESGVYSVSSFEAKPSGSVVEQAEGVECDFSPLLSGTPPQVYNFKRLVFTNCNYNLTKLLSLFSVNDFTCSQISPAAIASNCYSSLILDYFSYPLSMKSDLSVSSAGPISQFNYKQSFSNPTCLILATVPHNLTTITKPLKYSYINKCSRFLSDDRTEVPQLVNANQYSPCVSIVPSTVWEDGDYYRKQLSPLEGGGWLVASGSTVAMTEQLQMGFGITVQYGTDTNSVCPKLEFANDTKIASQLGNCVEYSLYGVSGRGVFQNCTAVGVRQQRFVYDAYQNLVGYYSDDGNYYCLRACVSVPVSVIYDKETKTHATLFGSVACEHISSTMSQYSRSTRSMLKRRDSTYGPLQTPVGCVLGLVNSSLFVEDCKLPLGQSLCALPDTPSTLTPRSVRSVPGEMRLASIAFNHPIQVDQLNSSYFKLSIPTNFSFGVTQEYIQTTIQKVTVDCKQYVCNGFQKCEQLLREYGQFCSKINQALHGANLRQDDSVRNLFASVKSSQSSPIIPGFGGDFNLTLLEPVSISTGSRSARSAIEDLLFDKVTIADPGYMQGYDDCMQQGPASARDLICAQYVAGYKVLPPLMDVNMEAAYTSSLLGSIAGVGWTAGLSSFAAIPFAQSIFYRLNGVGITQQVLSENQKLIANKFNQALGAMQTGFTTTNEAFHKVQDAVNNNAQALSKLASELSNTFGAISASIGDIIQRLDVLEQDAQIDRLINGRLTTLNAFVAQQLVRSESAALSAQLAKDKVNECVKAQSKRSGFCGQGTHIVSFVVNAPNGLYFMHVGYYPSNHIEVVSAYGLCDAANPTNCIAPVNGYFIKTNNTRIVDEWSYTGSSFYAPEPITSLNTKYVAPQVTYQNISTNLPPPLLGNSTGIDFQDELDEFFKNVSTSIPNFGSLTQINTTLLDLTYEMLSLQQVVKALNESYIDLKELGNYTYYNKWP

B1: COV_2004 (antibody, V domains shown)
VH: QVQLVQSGAEVKKPGASVKVSCKASGYTFTGYYMHWVRQAPGQGLEWMGRINPSSGGTNYAQKFQGRVTMTRDTSISTAYMELSSLRSDDTAVYYCATDGDDGENWFDPWGQGTLVIVSS
VL: DIQMTQSPSSLSASVGDRVTITCRASQGISSWLAWYQQKPEKAPKSLIYAASSLQSGVPSRFSGSGSGTDFTLTISSLQPEDFATYYCQQYNSYPYTFGQGTKLEIK
notes: human IgG1
B2: COV_2008 (antibody, V domains shown)
VH: QVRVVQSGAEVKNPGASVKVSCKVSGYTLTELSIHWVRQAPGNGLEWMGGFDPEDGETIYAQKFQGRVTMTEDTSTDTAYMELSSLRSDDTAVYYCATAGAITGTPRNFYYYYGMDVWGQGTTVTVSS
VL: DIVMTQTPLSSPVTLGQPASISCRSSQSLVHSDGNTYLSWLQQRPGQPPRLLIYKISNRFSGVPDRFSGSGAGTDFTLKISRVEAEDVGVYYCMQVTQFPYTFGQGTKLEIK
notes: human IgG1
B3: COV_2028 (antibody, V domains shown)
VH: QVQLQESGPGLVKPSGTLSLTCVVSGGSISSSNWWSWVRQPPGKGLEWIGEIYHSGSTNYNPSLKSRVTISVDKSKNQFSLRLTSVTAADTAVYYCARGWNYDYWGQGTLVTVSS
VL: QSALTQPASVSGSPGQSITIACTGTSSDVGSYNLVSWYQQHPGKAPKLMIYEVSKRPSGLSNRFSGSKSGNTASLTISGLQAEDEADYYCYSYAGSSTWVFGGGTKLTVL
notes: human IgG1
B4: COV_2035 (antibody, V domains shown)
VH: QVQLVQSGAEVKKPGASVKVSCKVSGYTLPELSIHWVRQAPGKGLEWLGGFDPEDGKIIYAQKFQGRVTMTEDTSTDTAYMELSSLRSEDTAVYYCATSPAVVERGWFDPWGQGTLVTVSS
VL: QSALTQPPSASGSPGQSVTISCTGTSSDVGGYNYVSWYQQHPGKAPKLMIYEVSKRPSGVPDRFSGSKSGNMASLTVSGLQAEDEANYYCSSYAGSKRVFGGGTKLTVL
notes: human IgG1
B5: COV_2037 (antibody, V domains shown)
VH: QVQLVQSGAEVKKPGASVKVSCKVSGYTLTELSMHWVRQAPGKGLEWMGGFDPEDAETIYAQKFQGRVTMTEDTSTDTAYMELSSLRSEDTAVYYCATAGAITGTPTNYSYYYGMDFWGQGTTVTVSS
VL: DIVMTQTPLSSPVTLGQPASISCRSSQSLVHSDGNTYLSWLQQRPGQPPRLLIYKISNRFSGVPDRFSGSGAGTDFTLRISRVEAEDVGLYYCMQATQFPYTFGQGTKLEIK
notes: human IgG1
B6: COV_2054 (antibody, V domains shown)
VH: EVQLVESGGGVLQPGRSLRLSCAASGFTFNNYALHWVRQAPGKGLEWVAVISYDGSSKYYADSVRGRLTISRDNSRNTLYLQMNSLRPEDTAIYYCARDGDGLWLGESFYFDDWGQGTLVTVSS
VL: DIQMTQSPSTLSASVGDRVIITCRASQSISSWLAWYQQKPGKAPKLLIYEASTLQSGVPSRFSGSGSGTEFTLTISSLQPDDSATYYCQQYNSYPVHFSQGTKLEIK
notes: human IgG1
B7: COV_2103 (antibody, V domains shown)
VH: EVQLVESGGGVVQPGRSLRLSCGASGFTFSSYGIHWVRQAPGKGLDWVAVIWHDGSQKYYGDSVKGRFTISRDNSKNTLYLQMNRLRAEDTAVYYCARDSGDDYDSSGYPIGNAFDLWGQGTMVTVSS
VL: DIQMTQSPSTLSASVGDRVTITCRASQFINSWLAWYQQKPGKAPKLLIYKASSLETGVPSRFSGSGSGTEFTLTISSLQPDDFATYYCQQYNTYSFTFGPGTKVDIK
notes: human IgG1
B8: COV_2123 (antibody, V domains shown)
VH: EVQLVESGGGVVQPGRSLRLSCAASGFTFSSYAMHWVRQAPGKGLEWVAVLSYDGSNKYNADSVKGRFTISRDNSKNTLYLQMNSLRVEDTAMYYCARDGVSVTMVRGVIGPLCDYWGQGTLVTVSS
VL: not shown
notes: human IgG1
B9: COV_2172 (SEQ ID NO:872/877) (antibody, V domains shown)
VH: EVQLVESGGGVVQPGRSLRLSCAPSGFTFSTYAMHWVRQAPGKGLEWVAVISYDGSIKYYADSVKGRFTISRDNTMNTVFLQMNSLRAEDTAVYFCAKGGERWELFTSFDYWGQGTQVTVSS
VL: QSALTQPRSVSGSPGQSVTISCTGTSSDVGGYNYVSWYQQHPGKAPKLMIYDVSKRPSGVPDRFSGSKSGNTASLTISGLQAEDEADYYCCSYAGSYTFVFGGGTKLTVLG
B10: COV_2174 (antibody, V domains shown)
VH: EVQLAESGGGLVKPGGSLRLSCAASGFTFSDYYMSWIRQAPGKGLEWVSYISSSGSTIYYADSVKGRFTISRDNAKNSLYLQMNSLRAEDTAVYYCARDWSVVVVPAAPAVDVWGQGTTVTVSS
VL: DIQMTQSPSSLSASVGDRVTITCRASQGISNYLAWFQQKPGKAPKSLIYAASSLQSGVPSKFSGSGSGTDFTLTISSLQPEDFATYYCQQYNSYPLTFGGGTKVEIKR
notes: human IgG1
B11: COV_3077 (antibody, V domains shown)
VH: QVQLQESGPGLVKPSETLSLTCAVSGYSISSGYYWGWIRQPPGKGLEWIGSIYHSGSTYYNPSLKSRVTISVDTSKNQFSLKLSSVTAADTAVYYCARALYDAFDIWGQGTMVTVSS
VL: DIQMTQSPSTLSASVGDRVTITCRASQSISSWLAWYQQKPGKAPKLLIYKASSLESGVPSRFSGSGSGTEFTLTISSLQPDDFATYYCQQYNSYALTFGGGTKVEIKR
notes: human IgG1
B12: COV_2014 (antibody, V domains shown)
VH: QVQLVQSGAEVKKPGASVKVSCKVSGYTLTELSMHWVRQAPGKGLEWMGGFDPEDGETIYAQKFQGRVTMTEDTSTDTAYMELSSLRSEDTAVYYCATGKINYYDSSGYYGTFDYWGQGTLVTVSS
VL: B1 VL with D1A, M4L, W32Y, E41G, S46L, S53T, Y91L, P95H, Y96L, K103R
notes: human IgG1
B13: COV_3088 (antibody, V domains shown)
VH: EVQLVESGGGLVQPGGSLRLSCAASGFTFSSYDMHWVRQATGKGLEWVSAIGTAGDTYYPGSVKGRFTISRENAKNSLYLQMNSLRAGDTAVYYCARGSGWPPFFDYWGQGTLVTVSS
VL: SYELTQPPSVSVAPGKTARITCGGNNIGSKSVHWYQQKPGQAPVLVIYYDSDRPSGIPERFSGSNSGNTATLTISRVEAGDEADYYCQVWDSSSDHHWVFGGGTKLTVL
notes: human IgG1
B14: COV_1050 (antibody, V domains shown)
VH: QVQLVESGGGVVQPGRSLRLSCAASRFTFSSYAMHWVRQAPGKGLEWVAVISFDGSNKYYADSVKGRFTIFRDNSKNTLSLQMNSLRTEDTAMYYCASPAGYYESLWGQGTLVTVSS
VL: SYELTQPPSVSVSPGQTARVTCSGDALSKQYGFWYQQKPGQAPTLVIYKDTERPSGIPERFSGSGSGTTVTLTISGVQAEDEADYYCQSTDNSGRWVFGGGTKLTVLG
notes: human IgG1

molecular target: T2, SARS-CoV-2 NTD (1-290) (SARS-CoV-2, UniProt P0DTC2 14-290); assay: BLI, 1:1 model
T2 construct: range 1-290

Question: B1 was tested. Which Kd did it give?
Answer: < 1 pM

Question: B2 was tested. Which Kd did it give?
Answer: < 1 pM

Question: B3 was tested. Which Kd did it give?
Answer: 40.7 pM

Question: How did the Kd turn out when B4 was run?
Answer: < 1 pM

Question: For B5, which Kd is on record?
Answer: < 1 pM

Question: With B6 as the binder, how does the Kd read?
Answer: < 1 pM

Question: With B7 as the binder, how does the Kd read?
Answer: < 1 pM

molecular target: T3, SARS-CoV-2 S on pseudovirions (Wuhan Hu-1 / IL1/2020, last 18 amino acids removed) (SARS-CoV-2, UniProt P0DTC2 14-1273); assay: cell-based or functional assay

Question: For B8, which “IC50, pseudotyped neutralization assay” value is on record?
Answer: 4 ng/mL

molecular target: SARS-CoV-1 spike antigens (bead panel) (SARS-CoV-1, UniProt P59594 14-1195); assay: multiplex bead assay

Question: Does B1 bind?
Answer: no binding

Question: Does B2 bind?
Answer: no binding

Question: Does B9 bind?
Answer: no binding

Question: Does B10 bind?
Answer: no binding

Question: Does B11 bind?
Answer: no binding

Question: Does B12 bind?
Answer: no binding

Question: Does B3 bind?
Answer: no binding

Question: Does B4 bind?
Answer: no binding

Question: Does B5 bind?
Answer: no binding

Question: Does B6 bind?
Answer: no binding

Question: Does B7 bind?
Answer: no binding

Question: Does B13 bind?
Answer: no binding

Question: Does B14 bind?
Answer: no binding

molecular target: T1, MERS-CoV spike antigens (bead panel); assay: multiplex bead assay

Question: Does B1 bind?
Answer: no binding

Question: Does B9 bind?
Answer: no binding

Question: Does B10 bind?
Answer: no binding

Question: Does B11 bind?
Answer: no binding

Question: Does B12 bind?
Answer: no binding

Question: Does B13 bind?
Answer: no binding

Question: Does B14 bind?
Answer: no binding

molecular target: T3, SARS-CoV-2 S on pseudovirions (Wuhan …); assay: cell-based or functional assay; remark: another data set of the same source

Question: With B1 as the binder, how does the “Mean IC50, pSV neutralization” value read?
Answer: 0.04 µg/ml

Question: What about the “Mean IC80, pSV neutralization” value of the same binder?
Answer: 3.64 µg/ml

Question: How did the “Mean IC50, pSV neutralization” value turn out when B2 was run?
Answer: 0.02 µg/ml

Question: And the “Mean IC80, pSV neutralization” value?
Answer: 0.31 µg/ml

Question: Which results are given for B9?
Answer: Mean IC50, pSV neutralization: 3.99 µg/ml; Mean IC80, pSV neutralization: ≥ 25 µg/ml

Question: With B10 as the binder, how does the “Mean IC50, pSV neutralization” value read?
Answer: 0.502 µg/ml

Question: And the “Mean IC80, pSV neutralization” value?
Answer: 2.04 µg/ml

Question: B11 was tested. Which “Mean IC50, pSV neutralization” value did it give?
Answer: ≥ 25 µg/ml

Question: What about the “Mean IC80, pSV neutralization” value of the same binder?
Answer: ≥ 25 µg/ml

Question: Which results are given for B12?
Answer: Mean IC50, pSV neutralization: ≥ 25 µg/ml; Mean IC80, pSV neutralization: ≥ 25 µg/ml

Question: With B8 as the binder, how does the “Mean IC80, pSV neutralization” value read?
Answer: 0.03 µg/ml

Question: For B3, which “Mean IC50, pSV neutralization” value is on record?
Answer: ≥ 25 µg/ml

Question: And the “Mean IC80, pSV neutralization” value?
Answer: ≥ 25 µg/ml

Question: What does the source list for B4?
Answer: Mean IC50, pSV neutralization: 0.04 µg/ml; Mean IC80, pSV neutralization: ≥ 25 µg/ml

Question: Which “Mean IC50, pSV neutralization” value does the source give for B5 here?
Answer: 0.07 µg/ml

Question: What about the “Mean IC80, pSV neutralization” value of the same binder?
Answer: ≥ 25 µg/ml

Question: Which results are given for B6?
Answer: Mean IC50, pSV neutralization: ≥ 25 µg/ml; Mean IC80, pSV neutralization: ≥ 25 µg/ml

Question: For B7, which “Mean IC50, pSV neutralization” value is on record?
Answer: ≥ 25 µg/ml

Question: What about the “Mean IC80, pSV neutralization” value of the same binder?
Answer: ≥ 25 µg/ml

Question: Which “Mean IC50, pSV neutralization” value does the source give for B13 here?
Answer: ≥ 25 µg/ml

Question: And the “Mean IC80, pSV neutralization” value?
Answer: ≥ 25 µg/ml

Question: With B14 as the binder, how does the “Mean IC50, pSV neutralization” value read?
Answer: ≥ 25 µg/ml

Question: What about the “Mean IC80, pSV neutralization” value of the same binder?
Answer: ≥ 25 µg/ml
